Test results: patent US12072338B2, “Pharmaceutical peptides for the treatment of inflammatory diseases” (PROTAGONISTS LTD., priority 2007, dated 2024)

Assays:
BCA-1 = biological target: T1, BCA-1 (Homo sapiens, UniProt O43927); experiment: Micro-array analysis of chemokine binding peptides: BCA-1
T1 construct: purchased 300-47
T1 sequence (O43927 23-109): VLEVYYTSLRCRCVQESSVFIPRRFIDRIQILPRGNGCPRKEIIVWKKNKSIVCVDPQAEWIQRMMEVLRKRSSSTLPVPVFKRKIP
Method: (§1) (1) Printing: Chemokine (CK) solution (in water) was serially diluted with Print Reagent (GenTel BioSurfaces USA) to final concentrations of 50 μg and 25 μg/ml. BSA/BSA-Biotin control solutions (in water) were diluted with Print Reagent to 100 μg/ml. Amplified stock of M13 phage control (M13KEgIII Cloning Vector, New England Biolabs, Cat.No.E8101S) was stored in Tris Buffered Saline (TBS; pH7.5, 4° C.) and diluted with Print Reagent to the working titre (10^8 pfu/μl). An automated spotting robot (16 pin print tool, 0.4 mm head; BioRobotics, UK) was used to print the CK/BSA control/M13 control, 5 repeats per sample (CK 25 μg/ml and 50 μg/ml; BSA 100 μg/ml; M13 20 μl), on PATH Protein Microarray Slides (GenTel, Prod.No. 2-1005/-1025) at […], and 50-70% relative humidity. Printed micro-array slides were stored at Room Temperature (RT) or 4° C. for at least 24 h before use.
(§2) (2) Blocking: Block Buffer (500 μl/partition; PATHblock, GenTel, Prod.No. 2-1014) was applied to the slide for 1 hour at room temp (RT). After removal of Block Buffer, the slide was air dried for 25 minutes;
(§3) (3) Phage Presented Peptide Binding: Amplified recombinant phage stock was stored in TBS and diluted with Wash Buffer to working titer (10^7 pfu/μl). Recombinant phage suspension (300 μl) was applied per partition and incubated at RT for 1 hour with gentle agitation.
(§4) (4) First Washing: The slides were washed twice with Wash Buffer 300 μl/partition).
(§5) (5) Primary Antibody (Ab) Labeling: The slides were incubated with the Primary Ab (1 mg/ml diluted ×2500 (Wash Reagent), 300 μl; Mouse Anti-M13 monoclonal Ab; Amersham Biosciences, UK; Product Code 27-9420-01) for 45 minutes at RT.
(§6) (6) Second Washing: The slides were washed twice with Wash Buffer (300 μl/partition).
(§7) (7) Secondary Ab Labeling: The slides were incubated with Secondary Ab (1.5 mg/ml diluted ×5000 (Wash Reagent), 300 μl; Cy3-conjugated AffiniPure Goat Anti-Mouse IgG; Jackson ImmunoReserch Labs, USA; Product Code 115-165-062).
(§8) (8) Third Washing: The slides were washed twice with Wash Buffer (300 μl/partition).
(§9) (9) Rinse: the slides were rinsed twice with Rinse Buffer (PATHrinse, GenTel, Prod.No. 2-1018) then dried well.
(§10) (10) Scanning: The peptide-bound, labeled slide was scanned (Laser Intensity 80%, Gain 80%, Resolution 10 μm) with a ScanArray Life Scanner (Packard BioChip Technologies, USA).
(§11) (11) Analysis: Quantitative analysis of micro-array was performed by the SpotReader program of Niles Scientific (USA) and presented as Relative Fluorescence (RF) as a function of CK concentration. Micro-array readout (Cy3 fluorescence) was quantified to determine the relative binding affinities of a CBP for the CKs and by inference, the specificity of the CBP for binding to a CK.

Mig = biological target: T2, Mig (Homo sapiens, UniProt Q07325); experiment: Micro-array analysis of chemokine binding peptides: Mig; conditions: for binding to Mig with relatively high affinity (Relative Fluorescence Units): limit = start of the upper 75% of that peptide's response range
T2 construct: purchased 300-26
T2 sequence (Q07325 23-125): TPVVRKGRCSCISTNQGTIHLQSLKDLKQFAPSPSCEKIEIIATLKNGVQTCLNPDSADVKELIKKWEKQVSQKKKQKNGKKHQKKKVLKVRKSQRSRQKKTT
Method: as §1, §2, §3, §4, §5, §6, §7, §8, §9, §10, §11

GRO-β = biological target: T3, GRO-β (Homo sapiens, UniProt P19875); experiment: Micro-array analysis of chemokine binding peptides: GRO-β
T3 construct: purchased 300-39
T3 sequence (P19875 35-107): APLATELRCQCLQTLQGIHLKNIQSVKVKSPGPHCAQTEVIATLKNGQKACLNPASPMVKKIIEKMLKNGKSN
Method: as §1, §2, §3, §4, §5, §6, §7, §8, §9, §10, §11

MCP-4 = biological target: T4, MCP-4 (Homo sapiens, UniProt Q99616); experiment: Micro-array analysis of chemokine binding peptides: MCP-4
T4 construct: purchased 300-24
T4 sequence (Q99616 17-98): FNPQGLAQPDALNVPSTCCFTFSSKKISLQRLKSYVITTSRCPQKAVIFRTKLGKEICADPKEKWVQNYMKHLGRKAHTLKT
Method: as §1, §2, §3, §4, §5, §6, §7, §8, §9, §10, §11

Eotaxin 2 = biological target: T5, Eotaxin 2 (Homo sapiens, UniProt O00175); experiment: Micro-array analysis of chemokine binding peptides: Eotaxin 2
T5 construct: purchased 300-33
T5 sequence (O00175 27-119): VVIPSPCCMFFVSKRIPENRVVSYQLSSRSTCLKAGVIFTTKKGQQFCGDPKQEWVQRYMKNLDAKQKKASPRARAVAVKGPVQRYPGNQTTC
Method: as §1, §2, §3, §4, §5, §6, §7, §8, §9, §10, §11

I-TAC = biological target: T6, I-TAC (Homo sapiens, UniProt O14625); experiment: Micro-array analysis of chemokine binding peptides: I-TAC; conditions: for binding to I-TAC with relatively high affinity (Relative Fluorescence Units): limit = start of the upper 75% of that peptide's response range
T6 construct: purchased 300-46
T6 sequence (O14625 22-94): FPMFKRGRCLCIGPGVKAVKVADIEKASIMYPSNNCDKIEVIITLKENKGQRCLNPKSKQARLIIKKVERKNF
Method: as §1, §2, §3, §4, §5, §6, §7, §8, §9, §10, §11

IL-8 = experiment: Micro-array analysis of chemokine binding peptides: IL-8
Sequence of IL-8 (P10145 28-99 limits assumed): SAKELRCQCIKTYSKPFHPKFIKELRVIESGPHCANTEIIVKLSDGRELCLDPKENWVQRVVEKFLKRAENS
Method: as §1, §2, §3, §4, §5, §6, §7, §8, §9, §10, §11

RANTES = biological target: T7, RANTES (Homo sapiens, UniProt P13501); experiment: Micro-array analysis of chemokine binding peptides: RANTES
T7 construct: purchased 300-06
T7 sequence (P13501 24-91): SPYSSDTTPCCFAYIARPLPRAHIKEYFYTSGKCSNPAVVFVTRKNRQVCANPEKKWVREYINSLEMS
Method: as §1, §2, §3, §4, §5, §6, §7, §8, §9, §10, §11

MCP-1 = biological target: T8, MCP-1 (Homo sapiens, UniProt P13500); experiment: Micro-array analysis of chemokine binding peptides: MCP-1
T8 construct: purchased 300-04
T8 sequence (P13500 24-99): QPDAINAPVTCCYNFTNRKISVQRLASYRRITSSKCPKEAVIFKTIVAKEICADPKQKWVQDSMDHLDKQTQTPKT
Method: as §1, §2, §3, §4, §5, §6, §7, §8, §9, §10, §11

MCP-2 = biological target: T9, MCP-2 (Homo sapiens, UniProt P80075); experiment: Micro-array analysis of chemokine binding peptides: MCP-2
T9 construct: purchased 300-15
T9 sequence (P80075 24-99): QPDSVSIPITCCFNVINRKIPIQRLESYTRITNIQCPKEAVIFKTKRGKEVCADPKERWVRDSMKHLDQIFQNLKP
Method: as §1, §2, §3, §4, §5, §6, §7, §8, §9, §10, §11

Eotaxin 3 = biological target: T10, Eotaxin 3 (Homo sapiens, UniProt Q9Y258); experiment: Micro-array analysis of chemokine binding peptides: Eotaxin 3
T10 construct: purchased 300-48
T10 sequence (Q9Y258 24-94): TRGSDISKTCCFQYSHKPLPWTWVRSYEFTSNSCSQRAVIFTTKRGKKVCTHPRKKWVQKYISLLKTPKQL
Method: as §1, §2, §3, §4, §5, §6, §7, §8, §9, §10, §11

Lymphotactin = biological target: T11, Lymphotactin (Homo sapiens, UniProt P47992); experiment: Micro-array analysis of chemokine binding peptides: Lymphotactin
T11 construct: purchased 300-20
T11 sequence (P47992 22-114): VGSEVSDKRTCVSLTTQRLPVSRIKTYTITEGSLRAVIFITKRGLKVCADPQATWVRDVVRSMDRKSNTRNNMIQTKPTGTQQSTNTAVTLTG
Method: as §1, §2, §3, §4, §5, §6, §7, §8, §9, §10, §11

TECK = biological target: T12, TECK (Homo sapiens, UniProt O15444); experiment: Micro-array analysis of chemokine binding peptides: TECK
T12 construct: purchased 300-45
T12 sequence (O15444 24-150): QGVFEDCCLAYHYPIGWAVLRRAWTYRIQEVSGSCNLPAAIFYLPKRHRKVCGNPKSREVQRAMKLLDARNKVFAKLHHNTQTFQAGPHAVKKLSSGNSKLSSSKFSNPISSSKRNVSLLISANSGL
Method: as §1, §2, §3, §4, §5, §6, §7, §8, §9, §10, §11

Eotaxin = biological target: T13, Eotaxin (Homo sapiens, UniProt P51671); experiment: Micro-array analysis of chemokine binding peptides: Eotaxin
T13 construct: purchased 300-21
Method: as §1, §2, §3, §4, §5, §6, §7, §8, §9, §10, §11

I-309 = biological target: T14, I-309 (Homo sapiens, UniProt P22362); experiment: Micro-array analysis of chemokine binding peptides: I-309; conditions: limit = start of the upper 75% of that peptide's response range
T14 construct: purchased 300-37
T14 sequence (P22362 24-96): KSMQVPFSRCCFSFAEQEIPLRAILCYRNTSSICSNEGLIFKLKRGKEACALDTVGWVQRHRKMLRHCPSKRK
Method: as §1, §2, §3, §4, §5, §6, §7, §8, §9, §10, §11

Fractalkine = biological target: T15, Fractalkine (Homo sapiens, UniProt P78423); experiment: Micro-array analysis of chemokine binding peptides: Fractalkine
T15 construct: purchased 300-31
T15 sequence (P78423 25-100 limits assumed): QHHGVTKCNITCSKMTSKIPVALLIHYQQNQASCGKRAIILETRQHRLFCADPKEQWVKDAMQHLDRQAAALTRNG
Method: as §1, §2, §3, §4, §5, §6, §7, §8, §9, §10, §11

SDF1-α = biological target: T16, SDF1-α (Homo sapiens, UniProt P48061); experiment: Micro-array analysis of chemokine binding peptides: SDF1-α
T16 construct: purchased 300-28a
T16 sequence (P48061 22-89 limits assumed): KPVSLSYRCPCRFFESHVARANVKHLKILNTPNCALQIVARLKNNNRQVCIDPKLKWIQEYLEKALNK
Method: as §1, §2, §3, §4, §5, §6, §7, §8, §9, §10, §11

Exodus-2 = biological target: T17, Exodus-2 (Homo sapiens, UniProt O00585); experiment: Micro-array analysis of chemokine binding peptides: Exodus-2
T17 construct: purchased 300-35
T17 sequence (O00585 24-134): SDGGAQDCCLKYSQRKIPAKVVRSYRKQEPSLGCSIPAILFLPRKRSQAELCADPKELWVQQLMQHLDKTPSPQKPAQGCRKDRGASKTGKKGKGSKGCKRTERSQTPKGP
Method: as §1, §2, §3, §4, §5, §6, §7, §8, §9, §10, §11

SDF1-β = biological target: T18, SDF1-β (Homo sapiens, UniProt P48061); experiment: Micro-array analysis of chemokine binding peptides: SDF1-β
T18 construct: purchased 300-28b
T18 sequence (P48061 22-93): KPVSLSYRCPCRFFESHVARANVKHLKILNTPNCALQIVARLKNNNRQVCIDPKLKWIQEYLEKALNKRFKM
Method: as §1, §2, §3, §4, §5, §6, §7, §8, §9, §10, §11

[1] = limit = start of the upper 75% of that peptide's response range

binding to BCA-1, stated in words (BCA-1)	binding to Mig with relatively high affinity (Relative Fluorescence Units) (Mig)	binding to GRO-β, stated in words (GRO-β)	binding to MCP-4, stated in words (MCP-4)	binding to I-TAC with relatively high affinity (Relative Fluorescence Units) (I-TAC)	binding to IL-8, stated in words (IL-8)	binding to MCP-1, stated in words (MCP-1)	binding to Eotaxin 3, stated in words (Eotaxin 3)	binding to Lymphotactin, stated in words (Lymphotactin)	binding to TECK, stated in words (TECK)	binding to Eotaxin, stated in words (Eotaxin)	Substance	further results
bound	> 9,000 RFU	bound	bound	> 9,000 RFU	bound	bound	bound	bound	bound	bound	DRYLNIVHAT [Ph-p18]	binding to Eotaxin 2, stated in words (Eotaxin 2): bound; binding to RANTES, stated in words (RANTES): bound; binding to MCP-2, stated in words (MCP-2): bound
bound	> 15,000 RFU			> 15,000 RFU				bound	bound		DYDYG (listed as Homo sapiens) [Ph-p31]	binding to I-309 with relatively high affinity (Relative Fluorescence Units) (I-309): > 15,000 RFU; binding to MCP-4 with relatively high affinity (Relative Fluorescence Units) (MCP-4; [1]): > 15,000 RFU; binding to Eotaxin 2 with relatively high affinity (Relative Fluorescence Units) (Eotaxin 2; [1]): > 15,000 RFU; binding to Fractalkine, stated in words (Fractalkine): bound; binding to IL-8 with relatively high affinity (Relative Fluorescence Units) (IL-8; [1]): > 15,000 RFU; binding to RANTES with relatively high affinity (Relative Fluorescence Units) (RANTES; [1]): > 15,000 RFU; binding to MCP-1 with relatively high affinity (Relative Fluorescence Units) (MCP-1; [1]): > 15,000 RFU; binding to MCP-2 with relatively high affinity (Relative Fluorescence Units) (MCP-2; [1]): > 15,000 RFU; binding to Eotaxin 3 with relatively high affinity (Relative Fluorescence Units) (Eotaxin 3; [1]): > 15,000 RFU; binding to Eotaxin with relatively high affinity (Relative Fluorescence Units) (Eotaxin; [1]): > 15,000 RFU; binding to SDF1-α, stated in words (SDF1-α): bound; binding to Exodus-2, stated in words (Exodus-2): bound; binding to SDF1-β, stated in words (SDF1-β): bound
		bound	bound		bound	bound	bound	bound	bound	bound	HYTCSSHFP [Ph-p17]	binding to Mig, stated in words (Mig): bound; binding to I-TAC, stated in words (I-TAC): bound
